{"source": "patent US9493781B2", "about": "“Synthetic brassica-derived chloroplast transit peptides” (DOW AGROSCIENCES LLC, priority 2012, dated 2016)", "molecules": {"B1": {"name": "pDAB107527: TraP4 v2 - dgt-28 v5: binary construct TraP4 v2:dgt-28 v5 (SEQ ID NO:32) (nucleic acid)", "DNA": "ATGCTTGCTAGACAAGGTGGAAGTCTGAGAGCTTCTCAATGCAACGCTGGACTTGCTAGAAGAGTTGAAGTTGGTGCTCTTGTTGTTCCTAGACCTATCTCTGTTAACGACGTTGTTCCTCACGTTTACTCTGCTCCACTTTCTGTTGCTAGAAGGTCTTGCTCTAAGTCCTCCATTAGGTCCACTAGAAGGCTTCAAACTACTGTGTGCTCTGCTGCAAGAGGGATGCCAGCCTTGTCTTTACCTGGATCAAAGAGTATCACAGCTAGGGCACTCTTTCTTGCTGCTGCTGCTGATGGGGTTACTACTTTGGTGAGGCCATTGAGAAGTGACGACACAGAAGGATTCGCTGAGGGGTTAGTTCGTTTAGGCTATCGTGTAGGGAGGACACCCGATACTTGGCAAGTCGATGGCAGACCACAAGGACCAGCAGTGGCTGAGGCTGACGTCTACTGTAGAGACGGAGCAACCACCGCTAGATTCTTGCCAACCTTAGCAGCTGCTGGTCACGGAACATACAGATTTGATGCTTCACCACAGATGAGGAGACGTCCTCTTTTGCCCTTAAGCAGAGCCTTGAGGGATTTGGGTGTCGATCTTAGACACGAAGAAGCTGAAGGTCATCACCCTCTGACTGTCCGTGCTGCTGGGGTTGAAGGAGGAGAGGTTACTTTGGATGCTGGTCAGTCAAGTCAGTATCTCACTGCCTTGTTGCTCCTTGGTCCCCTTACAAGACAAGGACTGAGGATAAGGGTTACTGATTTGGTGTCAGCACCATACGTGGAGATTACGCTTGCAATGATGAGGGCTTTCGGAGTTGAAGTGGCAAGGGAGGGAGATGTGTTCGTTGTTCCACCTGGTGGATATCGTGCAACTACGTATGCTATAGAACCCGACGCAAGTACTGCTTCTTACTTCTTCGCAGCTGCTGCTTTGACTCCTGGAGCTGAAGTGACTGTACCTGGGTTAGGCACGGGAGCACTTCAAGGAGATTTGGGATTTGTAGATGTCTTAAGGAGAATGGGAGCCGAGGTGTCCGTAGGAGCTGATGCAACCACTGTTAGAGGAACTGGTGAATTGCGTGGCCTTACAGCCAACATGAGAGACATAAGTGATACGATGCCGACCCTCGCTGCAATAGCACCCTTTGCTAGTGCTCCAGTTAGAATCGAGGATGTTGCCAACACTCGTGTCAAAGAATGTGACAGACTTGAGGCTTGTGCAGAGAACCTTAGGAGGTTGGGAGTAAGGGTTGCAACGGGTCCGGACTGGATTGAGATACACCCTGGTCCAGCTACTGGTGCTCAAGTCACAAGCTATGGTGATCACAGAATTGTGATGTCATTTGCAGTGACTGGACTTCGTGTGCCTGGGATCAGCTTCGACGACCCTGGCTGTGTTCGTAAGACTTTTCCTGGGTTTCACGAGGCTTTCGCAGAATTGAGGCGTGGCATTGGGAGCTGA", "modifications": "In-frame fusion of dgt-28 v5 and TraP4 v2"}}, "system": "Arabidopsis", "assay": "dgt-28, dgt-32, dgt-33, dgt-3, dgt-7 transformed Arabidopsis (T1, T2, T3) response to postemergence glyphosate, % visual injury", "format": "in vivo, Arabidopsis thaliana", "settings": "14 days after application", "from_the_text": "Transgenic T1 Arabidopsis plants containing the dgt-28 transgene were sprayed with differing rates of glyphosate. Elevated rates were applied in this study to determine the relative levels of resistance (105, 420, 1,680 or 3,360 g ae/ha). A typical 1× usage rate of glyphosate that will control non-transformed Arabidopsis is 420 g ae/ha. […] The T1 Arabidopsis plants that were used in this study were variable copy number for the dgt-28 transgene. The low copy dgt-28 T1 Arabidopsis plants were self-pollinated and used to produce T2 plants.\nResults of Glyphosate Selection of Transformed dgt-28 Arabidopsis Plants. The Arabidopsis T1 transformants were first selected from the background of untransformed seed using a glufosinate selection scheme. Three flats or 30,000 seed were analyzed for each T1 construct. The T1 plants selected above were molecularly characterized and representative plants with variable copy number were subsequently transplanted to individual pots and sprayed with various rates of commercial glyphosate as previously described. The response of these plants is presented in terms of % visual injury 2 weeks after treatment (WAT). […] An arithmetic mean and standard deviation is presented for each construct used for Arabidopsis transformation. The range in individual response is also indicated in the last column for each rate and transformation. Wild-type, non-transformed Arabidopsis (c.v. Columbia) served as a glyphosate sensitive control.\nT2Arabidopsis Data. The second generation plants (T2) of selected T1 Arabidopsis events which contained low copy numbers of the dgt-28 transgene were further characterized for glyphosate tolerance. Glyphosate was applied as described previously. The response of the plants is presented in terms of % visual injury 2 weeks after treatment (WAT). […] An arithmetic mean and standard deviation are presented for each construct used for Arabidopsis transformation. The range in individual response is also indicated in the last column for each rate and transformation. Wild-type, non-transformed Arabidopsis (cv. Columbia) served as a glyphosate sensitive control. In the T2 generation hemizygous and homozygous plants were available for testing for each event and therefore were included for each rate of glyphosate tested. Hemizygous plants contain two different alleles at a locus as compared to homozygous plants which contain the same two alleles at a locus. Variability of response to glyphosate is expected in the T2 generation as a result of the difference in gene dosage for hemizygous as compared to homozygous plants. The variability in response to glyphosate is reflected in the standard deviation and range of response.\nT3 Arabidopsis Data. The third generation plants (T3) of selected T2 Arabidopsis events which contained low copy numbers of the dgt-28 transgene were further characterized for glyphosate tolerance. […] Glyphosate was applied as described previously. The response of the plants is presented in terms of % visual injury 2 weeks after treatment (WAT). […] An arithmetic mean and standard deviation are presented for each construct used for Arabidopsis transformation. The range in individual response is also indicated in the last column for each rate and transformation. Wild-type, non-transformed Arabidopsis (cv. Columbia) served as a glyphosate-sensitive control.", "key": {"[1]": {"settings": "Table 8, T1 Arabidopsis, 105 g ae/ha glyphosate"}, "[2]": {"settings": "Table 8, T1 Arabidopsis, 420 g ae/ha glyphosate"}, "[3]": {"settings": "Table 8, T1 Arabidopsis, 1680 g ae/ha glyphosate"}, "[4]": {"settings": "Table 8, T1 Arabidopsis, 3360 g ae/ha glyphosate"}, "[5]": {"settings": "Table 10, T1 Arabidopsis, 1,680 g ae/ha glyphosate"}}}
{"molecule": "B1", "values": [{"measurement": "% Injury Ave", "setting": "[1]", "value": 3.8, "unit": "%"}, {"measurement": "% Injury Range (%)", "setting": "[1]", "value": "0-15%"}, {"measurement": "No. plants with 20-40% injury", "setting": "[1]", "value": 0}, {"measurement": "No. plants with <20% injury", "setting": "[1]", "value": 4}, {"measurement": "No. plants with >40% injury", "setting": "[1]", "value": 0}, {"measurement": "% Injury Ave", "setting": "[2]", "value": 28.8, "unit": "%"}, {"measurement": "% Injury Range (%)", "setting": "[2]", "value": "0-65%"}, {"measurement": "No. plants with 20-40% injury", "setting": "[2]", "value": 1}, {"measurement": "No. plants with <20% injury", "setting": "[2]", "value": 2}, {"measurement": "No. plants with >40% injury", "setting": "[2]", "value": 1}, {"measurement": "% Injury Ave", "setting": "[3]", "value": 55.0, "unit": "%"}, {"measurement": "% Injury Range (%)", "setting": "[3]", "value": "35-85%"}, {"measurement": "No. plants with 20-40% injury", "setting": "[3]", "value": 2}, {"measurement": "No. plants with <20% injury", "setting": "[3]", "value": 0}, {"measurement": "No. plants with >40% injury", "setting": "[3]", "value": 2}, {"measurement": "% Injury Ave", "setting": "[4]", "value": 43.8, "unit": "%"}, {"measurement": "% Injury Range (%)", "setting": "[4]", "value": "30-70%"}, {"measurement": "No. plants with 20-40% injury", "setting": "[4]", "value": 2}, {"measurement": "No. plants with <20% injury", "setting": "[4]", "value": 0}, {"measurement": "No. plants with >40% injury", "setting": "[4]", "value": 2}, {"measurement": "% Injury Ave", "setting": "[5]", "value": 55.0, "unit": "%"}, {"measurement": "% Injury Range (%)", "setting": "[5]", "value": "35-85%"}, {"measurement": "No. plants with 20-40% injury", "setting": "[5]", "value": 2}, {"measurement": "No. plants with <20% injury", "setting": "[5]", "value": 0}, {"measurement": "No. plants with >40% injury", "setting": "[5]", "value": 2}]}
